In the supplement of paper PMC10567573:

B1: HESX1 (parent)
chain: ENKPSTCSFSIERILGLDQKKDCV

Variants of: B1
Assay: protein stability index of a GFP-peptide fusion (GPS, HEK-293T) (PSI 1-6); higher = more stable
Conditions: c terminus: a fixed tail appended
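Further: lentivirally expressed fusions sorted by FACS into six bins by GFP to DsRed ratio, PSI derived from sequencing read proportions per bin multiplied by bin number.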

| Variant | protein stability index |
| --- | --- |
| ENKPSTCSFSIERIVGLDQKKDCV [L15V] | 4.16 |
| ENKPSTCSFSIERIMGLDQKKDCV [L15M] | 2.12 |
| ENKPSTCSFSIERIHGLDQKKDCV [L15H] | 3.13 |
| ENKPSTCSFSIERISGLDQKKDCV [L15S] | 3.5 |
| ENKPSTCSFSIERINGLDQKKDCV [L15N] | 3.73 |
| ENKPSTCSFSIERIWGLDQKKDCV [L15W] | 2.46 |
| ENKPSTCSFSIERIIGLDQKKDCV [L15I] | 2.96 |
| ENKPSTCSFSIERIGGLDQKKDCV [L15G] | 3.27 |
| ENKPSTCSFSIERIEGLDQKKDCV [L15E] | 4.11 |
| ENKPSTCSFSIERIAGLDQKKDCV [L15A] | 3.14 |
| ENKPSTCSFSIERIQGLDQKKDCV [L15Q] | 2.69 |
| ENKPSTCSFSIERIDGLDQKKDCV [L15D] | 4.06 |
| ENKPSTCSFSIERIYGLDQKKDCV [L15Y] | 2.38 |
| ENKPSTCSFSIERIFGLDQKKDCV [L15F] | 2.53 |
| ENKPSTCSFSIERICGLDQKKDCV [L15C] | 2.63 |
| ENKPSTCSFSIERIRGLDQKKDCV [L15R] | 3.61 |
| ENKPSTCSFSIERIPGLDQKKDCV [L15P] | 3.44 |
| ENKPSTCSFSIERIKGLDQKKDCV [L15K] | 4.23 |
| ENKPSTCSFSIERITGLDQKKDCV [L15T] | 4 |
| ENKPSTCSFSINRILGLDQKKDCV [E12N] | 3.44 |
| ENKPSTCSFSILRILGLDQKKDCV [E12L] | 1.86 |
| ENKPSTCSFSIYRILGLDQKKDCV [E12Y] | 1.9 |
| ENKPSTCSFSIVRILGLDQKKDCV [E12V] | 1.64 |
| ENKPSTCSFSITRILGLDQKKDCV [E12T] | 2.94 |

| Variant | protein stability index |
| --- | --- |
| ENKPSTCSFSIDRILGLDQKKDCV [E12D] | 3.8 |
| ENKPSTCSFSIIRILGLDQKKDCV [E12I] | 1.61 |
| ENKPSTCSFSIQRILGLDQKKDCV [E12Q] | 2.57 |
| ENKPSTCSFSIRRILGLDQKKDCV [E12R] | 2.46 |
| ENKPSTCSFSIHRILGLDQKKDCV [E12H] | 2.47 |
| ENKPSTCSFSIPRILGLDQKKDCV [E12P] | 2.94 |
| ENKPSTCSFSIMRILGLDQKKDCV [E12M] | 1.86 |
| ENKPSTCSFSIGRILGLDQKKDCV [E12G] | 3.65 |
| ENKPSTCSFSICRILGLDQKKDCV [E12C] | 2.45 |
| ENKPSTCSFSIWRILGLDQKKDCV [E12W] | 1.48 |
| ENKPSTCSFSIKRILGLDQKKDCV [E12K] | 2.86 |
| ENKPSTCSFSISRILGLDQKKDCV [E12S] | 2.84 |
| ENKPSTCSFSIFRILGLDQKKDCV [E12F] | 1.63 |
| ENKPSTCSFSNERILGLDQKKDCV [I11N] | 4.63 |
| ENKPSTCSFSVERILGLDQKKDCV [I11V] | 2.91 |
| ENKPSTCSFSSERILGLDQKKDCV [I11S] | 4.21 |
| ENKPSTCSFSFERILGLDQKKDCV [I11F] | 3.06 |
| ENKPSTCSFSPERILGLDQKKDCV [I11P] | 5.12 |
| ENKPSTCSFSQERILGLDQKKDCV [I11Q] | 3.97 |
| ENKPSTCSFSAERILGLDQKKDCV [I11A] | 3.27 |
| ENKPSTCSFSTERILGLDQKKDCV [I11T] | 3.52 |
| ENKPSTCSFSCERILGLDQKKDCV [I11C] | 3.27 |
| ENKPSTCSFSDERILGLDQKKDCV [I11D] | 4.04 |
| ENKPSTCSFSKERILGLDQKKDCV [I11K] | 4 |

| Variant | protein stability index |
| --- | --- |
| ENKPSTCSFSWERILGLDQKKDCV [I11W] | 2.77 |
| ENKPSTCSFSLERILGLDQKKDCV [I11L] | 3.58 |
| ENKPSTCSFSEERILGLDQKKDCV [I11E] | 5.05 |
| ENKPSTCSFSYERILGLDQKKDCV [I11Y] | 3.13 |
| ENKPSTCSFSRERILGLDQKKDCV [I11R] | 4.73 |
| ENKPSTCSFSGERILGLDQKKDCV [I11G] | 3.13 |
| ENKPSTCSFSMERILGLDQKKDCV [I11M] | 3.42 |
| ENKPSTCSFSHERILGLDQKKDCV [I11H] | 3.7 |
| ENKPSTCSFSIEPILGLDQKKDCV [R13P] | 4.41 |
| ENKPSTCSFSIEDILGLDQKKDCV [R13D] | 3.9 |
| ENKPSTCSFSIEQILGLDQKKDCV [R13Q] | 2.68 |
| ENKPSTCSFSIECILGLDQKKDCV [R13C] | 2.6 |
| ENKPSTCSFSIEYILGLDQKKDCV [R13Y] | 2.08 |
| ENKPSTCSFSIEGILGLDQKKDCV [R13G] | 3.78 |
| ENKPSTCSFSIEWILGLDQKKDCV [R13W] | 1.75 |
| ENKPSTCSFSIEHILGLDQKKDCV [R13H] | 3.31 |
| ENKPSTCSFSIETILGLDQKKDCV [R13T] | 3.35 |
| ENKPSTCSFSIELILGLDQKKDCV [R13L] | 2.27 |
| ENKPSTCSFSIEAILGLDQKKDCV [R13A] | 3.18 |
| ENKPSTCSFSIEVILGLDQKKDCV [R13V] | 2.12 |
| ENKPSTCSFSIEKILGLDQKKDCV [R13K] | 2.33 |
| ENKPSTCSFSIESILGLDQKKDCV [R13S] | 3.24 |
| ENKPSTCSFSIEFILGLDQKKDCV [R13F] | 1.48 |
| ENKPSTCSFSIENILGLDQKKDCV [R13N] | 3.96 |

| Variant | protein stability index |
| --- | --- |
| ENKPSTCSFSIEIILGLDQKKDCV [R13I] | 1.82 |
| ENKPSTCSFSIEMILGLDQKKDCV [R13M] | 1.9 |
| ENKPSTCSFSIEEILGLDQKKDCV [R13E] | 3.46 |
| ENKPSTCSFSIERPLGLDQKKDCV [I14P] | 4.34 |
| ENKPSTCSFSIERWLGLDQKKDCV [I14W] | 3.38 |
| ENKPSTCSFSIERKLGLDQKKDCV [I14K] | 4.31 |
| ENKPSTCSFSIERGLGLDQKKDCV [I14G] | 4.09 |
| ENKPSTCSFSIERNLGLDQKKDCV [I14N] | 3.83 |
| ENKPSTCSFSIERALGLDQKKDCV [I14A] | 4.54 |
| ENKPSTCSFSIERMLGLDQKKDCV [I14M] | 3.15 |
| ENKPSTCSFSIERQLGLDQKKDCV [I14Q] | 4.12 |
| ENKPSTCSFSIERCLGLDQKKDCV [I14C] | 3.97 |
| ENKPSTCSFSIERRLGLDQKKDCV [I14R] | 3.97 |
| ENKPSTCSFSIERSLGLDQKKDCV [I14S] | 4.52 |
| ENKPSTCSFSIERLLGLDQKKDCV [I14L] | 3.11 |
| ENKPSTCSFSIERDLGLDQKKDCV [I14D] | 4.11 |
| ENKPSTCSFSIERYLGLDQKKDCV [I14Y] | 3.75 |
| ENKPSTCSFSIERTLGLDQKKDCV [I14T] | 4.16 |
| ENKPSTCSFSIERVLGLDQKKDCV [I14V] | 3.39 |
| ENKPSTCSFSIERFLGLDQKKDCV [I14F] | 3.8 |
| ENKPSTCSFSIERELGLDQKKDCV [I14E] | 4.88 |
| ENKPSTCSFSIERHLGLDQKKDCV [I14H] | 4.1 |
